{"source": "patent US7241873B2", "about": "“Recombinant anti-osteopontin antibody and use thereof” (Juridical Foundation the Chemo-sero-therapeutic Research …, priority 2001, dated 2007)", "key": {"[1]": {"tested_on": "adhesion of TIG-7 cell to vitronectin (VN) or fibronectin (FN)", "test": "TIG-7 cell adhesion to vitronectin or fibronectin", "type": "cell-based, human"}, "[2]": {"tested_on": "adhesion of α9-transformed SW480 cell to vitronectin", "test": "Adhesion of α9-transformed SW480 cell to vitronectin", "type": "cell-based, human", "conditions": "FIG. 2B"}, "[3]": {"tested_on": "OPN-induced migration of human monocyte U937", "test": "OPN-induced U937 cell migration test (ChemoTx)", "type": "cell-based", "conditions": "U937, OPNs 10 μg/ml, antibody 50 μg/ml, FIG. 3b", "protocol": "A cell migration test using the U937 cell was performed by using a system ChemoTx101-8 (Neuro Probe Inc.). The cell was adjusted to 2×10^6 cells/ml with D-MEM containing 0.1% BSA, which was then applied to the upper layer on a filter (with a pore size of 8 μm), while the OPN protein was added to the lower layer.\nThe ChemoTx plate was left to stand in the presence of 5% CO2 at 37° C. for 4 hours. After the plate was left to stand, the filter was fixed with methanol, and was then stained with hematoxylin and eosin (H-E). The number of the cells migrating to the back face of the filter was counted with a microscope (magnification×400). The test was done in a triplicate manner, and the mean was used as data."}, "[4]": {"target": "T1, human OPN (GST-OPN-a, GST-OPN-b, GST-OPN-c, GST-N half, GST-C half, CHO/OPN-a, thrombin-cleaved OPN) (Homo sapiens, UniProt P10451)", "T1 construct": "cDNAs encoding the full-length human OPN-a and OPN-b individually including the respective signal peptide regions; made in house; host or cells: Escherichia coli JM109", "T1 sequence (P10451 17-168)": "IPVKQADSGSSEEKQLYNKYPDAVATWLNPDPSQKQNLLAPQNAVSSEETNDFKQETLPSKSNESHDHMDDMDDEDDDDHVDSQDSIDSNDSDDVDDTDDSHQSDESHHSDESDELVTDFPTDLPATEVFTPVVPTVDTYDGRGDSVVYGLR", "test": "Western blotting of murine monoclonal antibodies with OPN and thrombin digestion products", "type": "binding", "protocol": "(§1) The binding potencies of the murine monoclonal antibodies 2K1 (referred to as “murine 2K1 antibody” hereinafter) and 4C1 recovered in the Example 2 to OPN and the thrombin digestion products thereof were tested by Western blotting method. […] Further, these monoclonal antibodies were not only bound to the recombinant OPNs of non-glycosylated type as generated in Escherichia coli but also reacted with the CHO/OPN-a protein of sugar-chain-bound type and the thrombin digestion products thereof (referred to as “thrombin-cleaved OPN” hereinafter)."}, "[5]": {"tested_on": "human OPN (GST-OPN-a, GST-OPN-b, GST-OPN-c, GST-N half, GST-C half, CHO/OPN-a, thrombin-cleaved OPN)", "test": "Western blotting of murine monoclonal antibodies with OPN and thrombin digestion products", "type": "binding", "protocol": "as §1"}, "[6]": {"tested_on": "human peripheral monocyte migration toward thrombin-cleaved OPN", "test": "Migration of TNF-α-activated human peripheral monocyte toward thrombin-cleaved OPN (murine 2K1)", "type": "cell-based", "conditions": "for Mean migrating cell counts per 1 mm^3 (monocyte): thrombin-cleaved OPN 10 μg/mL", "protocol": "(§2) By the Ficoll method, a monocyte fraction and a neutrophil fraction were separated from normal human peripheral blood (P. M. Daftarian et al., (1996): Journal of Immunology, 157, 12–20). The intermediate layer between Ficoll and serum was collected and cultured in a flask at 37° C. for one hour. The resulting attached cell was used as monocyte. To the erythrocyte layer remaining after collection of the monocyte fraction was added a 5-fold volume of 3% dextran-PBS to aggregate erythrocyte, followed by centrifugation at 150×g and 4° C. for 5 minutes.\n(§3) The aggregated erythrocyte was precipitated, while in the resulting supernatant, neutrophil existed in suspended state. Then, the fraction was centrifuged at 500×g and ambient temperature for 20 minutes, to recover neutrophil. The monocyte and neutrophil as recovered in such manner were cultured overnight with human TNF-α (20 ng/mL) for activation. Then, the resulting activated monocyte and neutrophil were used for migration experiments.\n(§4) The migration experiments were done, using a 48-well micro chemotaxis chamber (manufactured by Neuro Probe Inc.). After various concentrations of the murine 2K1 antibody were added to the thrombin-cleaved OPN and were then preliminarily left to stand at 37° C. for 15 minutes, the mixtures were added to the lower chamber (to a final human OPN concentration of 10 μg/mL). Placing thereon a polycarbonate filter (pore size of 5 μm), further, a cell suspension (2×10^6 cells/mL) of 50 μL was added to the upper chamber.\n(§5) After culturing in the presence of 5% CO2 at 37° C. for 2 hours, the polycarbonate filter was removed to discard the cells on the upper surface of the filter; subsequently, the cells infiltrating to the back face of the filter were stained with Diff-Quick (manufactured by Baxter International Inc.). The stained cells were counted at a magnification×40. The results are shown as mean cell counts (cells/mm^3)±SD in 6 wells."}, "[7]": {"tested_on": "human peripheral neutrophil migration toward thrombin-cleaved OPN", "test": "Migration of TNF-α-activated human peripheral neutrophil toward thrombin-cleaved OPN", "type": "cell-based", "conditions": "for Mean migrating cell counts per 1 mm^3 (neutrophil): thrombin-cleaved OPN 10 μg/mL", "protocol": "as §2, §3, §4, §5"}, "[8]": {"tested_on": "adhesion of human fibroblast TIG-7 to CHO/OPN-a", "test": "Inhibition of TIG-7 cell adhesion to OPN", "type": "cell-based", "protocol": "(§6) It was examined by the following method as to whether or not the murine monoclonal antibodies inhibited cell adhesion to OPN. First, a 96-well plate was precoated with various concentrations of the CHO/OPN-a at 4° C. overnight, which was then treated with 0.5% BSA in PBS under conditions of 37° C. for 10 minutes, so as to block non-specific adhesion. A human fibroblast TIG-7 or SW480 cell transformed with the cDNA of an integrin subunit α9 (referred to as “α9-transformed SW480 cell” hereinafter) was suspended in D-MEM containing 0.25% BSA; 200 μl of the resulting cell suspension (at a cell concentration of 5×10^4 cells/well) was injected in a 96-well plate precoated with the CHO/OPN-a or nOPN, in the presence or absence of various concentrations of the monoclonal antibodies or synthetic peptides, for incubation at 37° C. for one hour.\n(§7) The culture medium was discarded from the plate, and all the wells were rinsed twice with D-MEM containing 0.25% BSA. The adherent cells were fixed and stained with 0.5% crystal violet in 20% methanol for 30 minutes.\nAll the wells were rinsed three times with water, and the adherent cells were then solubilized into 20% acetic acid. The resulting supernatant recovered from each well was analyzed with an immunoreader, to measure the absorbance at 590 nm to determine the relative count of the cells adhering to the well. All the assays were done in a triplicate fashion, and at least three independent experiments were performed. The values shown represent mean at three independent experiments."}, "[9]": {"tested_on": "adhesion of α9-transformed SW480 cell to nOPN", "test": "Adhesion of α9-transformed SW480 cell to nOPN", "type": "cell-based, human", "conditions": "FIG. 2B", "protocol": "as §6, §7\nAll the wells were rinsed three times with water, and the adherent cells were then solubilized into 20% acetic acid. The resulting supernatant recovered from each well was analyzed with an immunoreader, to measure the absorbance at 590 nm to determine the relative count of the cells adhering to the well. […]"}}, "data": [{"molecule": "murine 2K1 antibody: murine monoclonal antibody from mice immunized with Peptide 1 (…) of human OPN; hybridoma FERM BP-7883 (antibody, V domains shown, murine monoclonal antibody from mice immunized with Peptide 1 (…) of human OPN; hybridoma FERM BP-7883) VH: QVQLQQSGAELVRPGASVKLSCKALGYTFTDYEMHWVKQTPVHGLEWIGAIHPGRGGTAYNQKFKGKATLTADKSSSTAYMELSSLTSEDSAVYYCTRITGYFDVWGAGTTVTVSS VL: DVLMTQTPLSLPVSLGDQASISCRSSQSIVHSNGNTYLEWYLQKPGQSPKLLIYKVSNRFSGVPDRFSGSGSGTDFTLKISRVEAEDLGVYYCFQGSHVPLTFGAGTKLELKR", "values": [{"measurement": "inhibition of adhesion of TIG-7 cell to vitronectin (VN) or fibronectin (FN)", "setting": "[1]", "result": "never inhibit"}, {"measurement": "inhibition of adhesion between α9-transformed SW480 cell and vitronectin", "setting": "[2]", "result": "never inhibited"}, {"measurement": "inhibition of monocyte migration induced by CHO/OPN-a, thrombin-cleaved OPN and GST-N half", "setting": "[3]", "result": "apparently inhibits"}, {"measurement": "reactivity with GST-N half", "setting": "[4]", "result": "reacted"}, {"measurement": "reactivity with GST-OPN-a, GST-OPN-b, GST-OPN-c", "setting": "[5]", "result": "reacted"}, {"measurement": "inhibition of migration of TNF-α-activated human peripheral monocyte toward thrombin-cleaved OPN", "setting": "[6]", "result": "inhibited"}, {"measurement": "Mean migrating cell counts per 1 mm^3 (monocyte)", "setting": "[6]; antibody 0.4 μg/mL", "result": "258.0 ± 71.9", "unit": "counts per 1 mm^3"}, {"measurement": "Mean migrating cell counts per 1 mm^3 (monocyte)", "setting": "[6]; antibody 2 μg/mL", "result": "256.7 ± 66.5", "unit": "counts per 1 mm^3"}, {"measurement": "Mean migrating cell counts per 1 mm^3 (monocyte)", "setting": "[6]; antibody 10 μg/mL", "result": "160.0 ± 56.9", "unit": "counts per 1 mm^3"}, {"measurement": "Mean migrating cell counts per 1 mm^3 (monocyte)", "setting": "[6]; antibody 50 μg/mL", "result": "75.0 ± 55.4", "unit": "counts per 1 mm^3"}, {"measurement": "inhibition of migration of TNF-α-activated human peripheral neutrophil toward thrombin-cleaved OPN", "setting": "[7]", "result": "inhibited"}, {"measurement": "Mean migrating cell counts per 1 mm^3 (neutrophil)", "setting": "[7]; antibody 0.4 μg/mL", "result": "566.7 ± 60.2", "unit": "counts per 1 mm^3"}, {"measurement": "Mean migrating cell counts per 1 mm^3 (neutrophil)", "setting": "[7]; antibody 2 μg/mL", "result": "550.0 ± 49.0", "unit": "counts per 1 mm^3"}, {"measurement": "Mean migrating cell counts per 1 mm^3 (neutrophil)", "setting": "[7]; antibody 10 μg/mL", "result": "450.0 ± 90.8", "unit": "counts per 1 mm^3"}, {"measurement": "Mean migrating cell counts per 1 mm^3 (neutrophil)", "setting": "[7]; antibody 50 μg/mL", "result": "426.7 ± 30.8", "unit": "counts per 1 mm^3"}, {"measurement": "effect on the inhibition of cell adhesion, comparison and concentration dependence", "setting": "[8]; TIG-7, FIG. 1C", "result": "comparative to the effect exerted by mAb53 and is concentration-dependent"}, {"measurement": "inhibition of cell adhesion to OPN", "setting": "[8]; antibody 200 μg/ml, TIG-7, FIG. 1B", "result": "apparently inhibited"}, {"measurement": "inhibition of adhesion between SW480 cell and nOPN", "setting": "[9]", "result": "inhibited"}]}]}
